Target: CHD7 full length WT (UniProt Q9P2D1)
Experiment: single-molecule PIFE/smFRET

Sequence of UniProt Q9P2D1 (Q9P2D1 whole entry): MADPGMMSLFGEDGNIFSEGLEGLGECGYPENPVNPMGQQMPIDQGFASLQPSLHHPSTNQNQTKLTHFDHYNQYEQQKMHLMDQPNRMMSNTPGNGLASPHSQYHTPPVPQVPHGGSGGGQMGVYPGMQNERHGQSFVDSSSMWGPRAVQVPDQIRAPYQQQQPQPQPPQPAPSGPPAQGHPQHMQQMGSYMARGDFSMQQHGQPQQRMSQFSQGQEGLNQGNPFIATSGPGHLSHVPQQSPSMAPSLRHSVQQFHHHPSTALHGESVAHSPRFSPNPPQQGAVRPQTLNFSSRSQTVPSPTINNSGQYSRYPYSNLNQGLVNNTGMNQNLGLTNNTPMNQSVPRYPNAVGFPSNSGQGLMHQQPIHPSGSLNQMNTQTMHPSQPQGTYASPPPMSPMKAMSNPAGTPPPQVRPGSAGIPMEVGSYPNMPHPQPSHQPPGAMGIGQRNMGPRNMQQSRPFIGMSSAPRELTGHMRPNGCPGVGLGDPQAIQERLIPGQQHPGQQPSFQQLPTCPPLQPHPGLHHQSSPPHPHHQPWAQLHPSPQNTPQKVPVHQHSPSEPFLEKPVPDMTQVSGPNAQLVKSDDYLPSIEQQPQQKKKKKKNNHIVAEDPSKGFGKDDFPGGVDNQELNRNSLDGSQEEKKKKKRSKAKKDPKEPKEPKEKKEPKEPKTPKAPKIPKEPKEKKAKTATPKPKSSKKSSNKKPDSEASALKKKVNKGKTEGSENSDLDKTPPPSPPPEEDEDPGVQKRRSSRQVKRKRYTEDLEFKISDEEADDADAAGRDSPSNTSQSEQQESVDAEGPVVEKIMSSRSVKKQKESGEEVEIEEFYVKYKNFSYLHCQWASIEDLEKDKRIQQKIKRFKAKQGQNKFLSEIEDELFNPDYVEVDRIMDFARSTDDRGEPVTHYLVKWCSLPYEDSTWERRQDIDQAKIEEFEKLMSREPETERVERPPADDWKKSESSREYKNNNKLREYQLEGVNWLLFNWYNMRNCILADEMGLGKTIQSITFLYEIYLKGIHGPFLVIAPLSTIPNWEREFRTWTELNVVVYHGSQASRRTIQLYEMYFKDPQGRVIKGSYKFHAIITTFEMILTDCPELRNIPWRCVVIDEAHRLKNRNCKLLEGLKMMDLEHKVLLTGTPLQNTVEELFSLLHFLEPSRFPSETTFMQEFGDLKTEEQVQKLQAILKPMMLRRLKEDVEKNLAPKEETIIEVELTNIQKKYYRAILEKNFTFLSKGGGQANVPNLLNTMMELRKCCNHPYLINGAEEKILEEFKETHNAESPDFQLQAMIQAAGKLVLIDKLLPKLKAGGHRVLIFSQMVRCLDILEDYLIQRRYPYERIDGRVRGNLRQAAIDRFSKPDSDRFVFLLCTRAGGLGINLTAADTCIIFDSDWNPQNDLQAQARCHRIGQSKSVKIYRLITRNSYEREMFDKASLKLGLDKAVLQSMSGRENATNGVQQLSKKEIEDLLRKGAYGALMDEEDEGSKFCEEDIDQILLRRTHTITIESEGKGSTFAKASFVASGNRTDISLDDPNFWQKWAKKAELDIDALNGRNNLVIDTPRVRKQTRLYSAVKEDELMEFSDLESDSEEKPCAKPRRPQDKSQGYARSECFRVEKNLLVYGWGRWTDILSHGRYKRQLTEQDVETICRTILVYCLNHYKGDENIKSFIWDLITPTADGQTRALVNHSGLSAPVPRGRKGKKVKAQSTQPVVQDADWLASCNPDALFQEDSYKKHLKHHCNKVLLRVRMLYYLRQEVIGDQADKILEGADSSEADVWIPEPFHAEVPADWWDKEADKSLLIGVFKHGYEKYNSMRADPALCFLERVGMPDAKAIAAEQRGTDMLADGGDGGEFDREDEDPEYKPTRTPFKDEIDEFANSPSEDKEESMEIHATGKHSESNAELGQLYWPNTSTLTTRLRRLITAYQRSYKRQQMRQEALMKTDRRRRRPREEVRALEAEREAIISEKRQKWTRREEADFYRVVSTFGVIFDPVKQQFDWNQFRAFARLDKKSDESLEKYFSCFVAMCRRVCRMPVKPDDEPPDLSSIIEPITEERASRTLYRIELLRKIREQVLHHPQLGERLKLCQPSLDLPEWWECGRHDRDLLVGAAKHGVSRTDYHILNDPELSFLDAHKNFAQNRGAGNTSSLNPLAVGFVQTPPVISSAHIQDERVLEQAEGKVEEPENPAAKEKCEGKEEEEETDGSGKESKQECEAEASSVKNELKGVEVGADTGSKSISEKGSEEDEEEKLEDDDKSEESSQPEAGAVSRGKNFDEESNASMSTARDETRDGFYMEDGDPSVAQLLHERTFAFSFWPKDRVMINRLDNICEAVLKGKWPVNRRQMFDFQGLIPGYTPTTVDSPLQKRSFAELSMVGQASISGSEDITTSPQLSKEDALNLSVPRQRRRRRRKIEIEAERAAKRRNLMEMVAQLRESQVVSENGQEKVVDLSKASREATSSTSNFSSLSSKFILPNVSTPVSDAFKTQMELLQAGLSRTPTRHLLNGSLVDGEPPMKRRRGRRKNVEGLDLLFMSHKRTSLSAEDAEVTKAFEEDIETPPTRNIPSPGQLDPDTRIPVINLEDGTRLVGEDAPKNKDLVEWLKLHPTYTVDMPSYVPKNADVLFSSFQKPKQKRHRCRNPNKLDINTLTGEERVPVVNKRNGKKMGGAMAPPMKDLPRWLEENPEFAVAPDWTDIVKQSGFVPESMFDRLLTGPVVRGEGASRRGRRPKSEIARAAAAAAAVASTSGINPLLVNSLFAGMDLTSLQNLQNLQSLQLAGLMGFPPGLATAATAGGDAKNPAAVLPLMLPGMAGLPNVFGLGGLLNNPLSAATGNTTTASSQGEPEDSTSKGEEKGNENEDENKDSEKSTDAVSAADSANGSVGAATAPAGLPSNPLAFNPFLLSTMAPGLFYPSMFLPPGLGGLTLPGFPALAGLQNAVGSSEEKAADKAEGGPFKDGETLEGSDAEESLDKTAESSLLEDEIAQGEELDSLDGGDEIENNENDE

## GCCCTGGAGAATCCCGGTCTGCAGGCCGCTCAATTGGTCGTAGACAGCTCTAGCACCGCTTAAACGCACGTACGCGCTGTCCCCCGCGTTTTAACCGCCAAGGGGATTACTCCCTAGTCTCCAGGCACGTGTCAGATATATACATCCTGTGCATGTATTGAACAGCGACCTTGCCGGTGCCAGTCGGATAGTGTTCCGAGCTCCCACTCTAGAGGATCCCCGGGTACC (double strand) [smFRET 601 nucleosome, 3 bp exit linker, 78 bp entry linker]
  binding signal (% of nucleosomes with PIFE): 76.5

Reference: article doi:10.1101/2020.11.19.389429
